Patent publication US20150344570A1 (published 2015)

T1: FcγRIIb (human, UniProt P31994 43-217)
T1 construct: extracellular domain; Soluble extracellular domain with C-terminal His tag, used as analyte in Biacore; also called FcgRIIb; 2b; not shown: His tag attached to the C terminus
T1 sequence (looked up): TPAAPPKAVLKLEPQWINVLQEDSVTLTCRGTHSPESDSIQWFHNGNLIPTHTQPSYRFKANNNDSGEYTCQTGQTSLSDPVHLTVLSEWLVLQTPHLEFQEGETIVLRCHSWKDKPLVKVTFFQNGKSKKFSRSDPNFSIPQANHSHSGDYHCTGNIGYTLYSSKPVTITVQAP

B1: GpH7-A5/GpH7-B3 variant G237_02A/GpL16-k0 (antibody, human IgG1, kappa)
heavy 1: not shown
heavy 2: not shown
light: DIVMTQSPLSLPVTPGEPASISCQASESLVHSNRNTYLHWYLQKPGQSPQLLIYKVSNRFSGVPDRFSGSGSGTDFTLKISRVEAEDVGVYYCSQNTHVPPTFGQGTKVEIERTVAAPSVFIFPPSDEQLKSGTASVVCLLNNFYPREAKVQWKVDNALQSGNSQESVTEQDSKDSTYSLSSTLTLSKADYEKHKVYACEVTHQGLSSPVTKSFNRGEC
notes: Heterodimerized anti-glypican-3 IgG1; alteration in the GpH7-B3 chain only; also called He Ab
B2: GpH7-A5/GpH7-B3 variant P238_15Y/GpL16-k0 (antibody, human IgG1, kappa)
heavy 1: not shown
heavy 2: not shown
light: B1 light
notes: as for B1
B3: GpH7-A5/GpH7-B3 variant L235_09D/GpL16-k0 (antibody, human IgG1, kappa)
heavy 1: not shown
heavy 2: not shown
light: B1 light
notes: as for B1
B4: GpH7-A5/GpH7-B3 variant G237_04F/GpL16-k0 (antibody, human IgG1, kappa)
heavy 1: not shown
heavy 2: not shown
light: B1 light
notes: as for B1
B5: GpH7-A5/GpH7-B3 variant L235_15Y/GpL16-k0 (antibody, human IgG1, kappa)
heavy 1: not shown
heavy 2: not shown
light: B1 light
notes: as for B1
B6: GpH7-A5/GpH7-B3 variant G237_19Q/GpL16-k0 (antibody, human IgG1, kappa)
heavy 1: not shown
heavy 2: not shown
light: B1 light
notes: as for B1
B7: GpH7-A5/GpH7-B3 variant P238_08L/GpL16-k0 (antibody, human IgG1, kappa)
heavy 1: not shown
heavy 2: not shown
light: B1 light
notes: as for B1
B8: GpH7-A5/GpH7-B3 variant P238_06M/GpL16-k0 (antibody, human IgG1, kappa)
heavy 1: not shown
heavy 2: not shown
light: B1 light
notes: as for B1
B9: GpH7-A5/GpH7-B3 variant L235_20W/GpL16-k0 (antibody, human IgG1, kappa)
heavy 1: not shown
heavy 2: not shown
light: B1 light
notes: as for B1
B10: GpH7-A5/GpH7-B3 variant G237_15Y/GpL16-k0 (antibody, human IgG1, kappa)
heavy 1: not shown
heavy 2: not shown
light: B1 light
notes: as for B1
B11: GpH7-A5/GpH7-B3 variant L234_09D/GpL16-k0 (antibody, human IgG1, kappa)
heavy 1: not shown
heavy 2: not shown
light: B1 light
notes: as for B1
B12: GpH7-A5/GpH7-B3 variant P238_10E/GpL16-k0 (antibody, human IgG1, kappa)
heavy 1: not shown
heavy 2: not shown
light: B1 light
notes: as for B1
B13: GpH7-A5/GpH7-B3 variant G237_10E/GpL16-k0 (antibody, human IgG1, kappa)
heavy 1: not shown
heavy 2: not shown
light: B1 light
notes: as for B1
B14: GpH7-A5/GpH7-B3 variant P238_09D/GpL16-k0 (antibody, human IgG1, kappa)
heavy 1: not shown
heavy 2: not shown
light: B1 light
notes: as for B1
B15: GpH7-A5/GpH7-B3 variant G237_06M/GpL16-k0 (antibody, human IgG1, kappa)
heavy 1: not shown
heavy 2: not shown
light: B1 light
notes: as for B1
B16: GpH7-A5/GpH7-B3 variant G237_18N/GpL16-k0 (antibody, human IgG1, kappa)
heavy 1: not shown
heavy 2: not shown
light: B1 light
notes: as for B1
B17: GpH7-A5/GpH7-B3 variant G237_20W/GpL16-k0 (antibody, human IgG1, kappa)
heavy 1: not shown
heavy 2: not shown
light: B1 light
notes: as for B1

Target: T2, FcγRIa (human, UniProt P12314 16-292)
T2 construct: extracellular domain; Soluble extracellular domain with C-terminal His tag, used as analyte in Biacore; also called FcgRI; 1a; not shown: His tag attached to the C terminus
T2 sequence (P12314 16-292): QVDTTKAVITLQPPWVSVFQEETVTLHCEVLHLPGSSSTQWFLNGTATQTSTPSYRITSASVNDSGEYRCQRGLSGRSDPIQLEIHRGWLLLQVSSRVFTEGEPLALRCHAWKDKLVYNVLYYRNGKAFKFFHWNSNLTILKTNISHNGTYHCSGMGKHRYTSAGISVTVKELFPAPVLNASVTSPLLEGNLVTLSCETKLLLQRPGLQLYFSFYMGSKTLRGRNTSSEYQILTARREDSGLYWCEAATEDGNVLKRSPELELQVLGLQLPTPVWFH
Assay: SPR (Biacore); He/Con_1a divided by He/Con_2b (binding to FcγRIa against binding to FcγRIIb)
Experimental: The heterodimerized antibodies He Abs in which one of the H chains was introduced with an alteration were assayed for their binding activities to each activating FcγR and inhibitory FcγR according to the method described in Example 4. […] The activating FcγRs in FIGS. 26, 27, 28, and 29 are FcγRIa, FcγRIIa (R), FcγRIIa (H), and FcγRIIIa, respectively.
Analysis of interaction between objective antibody and the FcγR was carried out using Biacore T100 (GE Healthcare). HBS-EP+ (GE Healthcare) was used as the running buffer, and the measurement temperature was set to 25° C. Chips produced by immobilizing the antigen peptide by the amine coupling method to a Series S Sencor Chip CM5 (GE Healthcare), or alternatively, chips produced by allowing preliminarily biotinylated antigen peptides to interact with and immobilize onto a Series S Sensor Chip SA (certified) (GE Healthcare) were used. Antibodies of interest were captured onto an antigen peptide-immobilized chip, and allowed to interact to each FcγR diluted with running buffer. To regenerate and repeatedly use the chip, the antibodies captured on the chip were washed off by reacting 10 mM glycine-HCl, pH 1.5.

Row | He_1a/2b (Ia/IIb) [ratio] | Binder
1 | 0.73 | B1
2 | 0.46 | B2
3 | 0.8 | B3
4 | 0.55 | B4
5 | 0.65 | B5
6 | 0.77 | B6
7 | 0.49 | B7
8 | 0.59 | B8
9 | 0.63 | B9
10 | 0.52 | B10
11 | 0.65 | B11
12 | 0.44 | B12
13 | 0.66 | B13
14 | 0.43 | B14
15 | 0.63 | B15
16 | 0.46 | B16
17 | 0.41 | B17

Target: T1, FcγRIIb
Assay: SPR (Biacore), antibody captured, FcγR as analyte; relative to GpH7-A5/GpH7-B3/GpL16-k0 = 100

Row | He/Con_2b | Binder
18 | 124 % of control (=100) | B1
19 | 218 % of control (=100) | B2
20 | 106 % of control (=100) | B3
21 | 149 % of control (=100) | B4
22 | 149 % of control (=100) | B5
23 | 108 % of control (=100) | B6
24 | 204 % of control (=100) | B7
25 | 174 % of control (=100) | B8
26 | 147 % of control (=100) | B9
27 | 152 % of control (=100) | B10
28 | 150 % of control (=100) | B11
29 | 232 % of control (=100) | B12
30 | 114 % of control (=100) | B13
31 | 221 % of control (=100) | B14
32 | 130 % of control (=100) | B15
33 | 180 % of control (=100) | B16
34 | 193 % of control (=100) | B17

Target: T2, FcγRIa
Assay: as above

Row | He/Con_1a | Binder
35 | 90.3 % of control (=100) | B1
36 | 101 % of control (=100) | B2
37 | 84.8 % of control (=100) | B3
38 | 81.5 % of control (=100) | B4
39 | 97.1 % of control (=100) | B5
40 | 82.8 % of control (=100) | B6
41 | 101 % of control (=100) | B7
42 | 102 % of control (=100) | B8
43 | 92.8 % of control (=100) | B9
44 | 79.6 % of control (=100) | B10
45 | 97.8 % of control (=100) | B11
46 | 102 % of control (=100) | B12
47 | 75.1 % of control (=100) | B13
48 | 96 % of control (=100) | B14
49 | 81.6 % of control (=100) | B15
50 | 82.5 % of control (=100) | B16
51 | 78.4 % of control (=100) | B17
